The text below walks through data of paper PMC11480506.

Test [1] deals with human IRE1α lumenal domain (IRE1α LD, aa 24-443) (human) (UniProt O75460). Kind of test: fluorescence polarisation; fluorescence anisotropy of N-terminal fluorescein labeled peptide with IRE1α LD; n = 2 independent experiments.
Test [2] addresses mCherry-IRE1α LD 352LNYL355-GSGS-10His (human) (UniProt O75460). Kind of test: mass photometry; protein tethered by C-terminal 10His to supported lipid bilayers (99 mol% POPC, 1 mol% Ni-NTA lipids); 100 nM protein; 25 mM HEPES pH 7.3, 150 mM NaCl, 250 µM TCEP.
For test [3] the target is unchanged. Nature of the test: mass photometry; protein tethered by C-terminal 10His to supported lipid bilayers (99 mol% POPC, 1 mol% Ni-NTA lipids); 75 nM protein; 25 mM HEPES pH 7.3, 150 mM NaCl, 250 µM TCEP.
Test [4] deals with IRE1α LD 352LNYL355-GSGS mutant (human) (UniProt O75460). Nature of the test: AUC; sedimentation velocity (AUC-SV), 25 µM protein.
The target of test [5] is mCherry-IRE1α LD 312TLPL315-GSGS-10His (human) (UniProt O75460). Nature of the test: mass photometry; protein tethered by C-terminal 10His to supported lipid bilayers (99 mol% POPC, 1 mol% Ni-NTA lipids); 100 nM protein; 25 mM HEPES pH 7.3, 150 mM NaCl, 250 µM TCEP.
The target is the same in test [6]. Nature of the test: mass photometry; protein tethered by C-terminal 10His to supported lipid bilayers (99 mol% POPC, 1 mol% Ni-NTA lipids); 75 nM protein; 25 mM HEPES pH 7.3, 150 mM NaCl, 250 µM TCEP.
Test [7] concerns the target mCherry-IRE1α LD-10His (human) (UniProt O75460). Kind of test: mass photometry; protein tethered by C-terminal 10His to supported lipid bilayers (99 mol% POPC, 1 mol% Ni-NTA lipids); 100 nM protein; 25 mM HEPES pH 7.3, 150 mM NaCl, 250 µM TCEP.
Test [8] shares this target. Nature of the test: mass photometry; protein tethered by C-terminal 10His to supported lipid bilayers (99 mol% POPC, 1 mol% Ni-NTA lipids); 75 nM protein; 25 mM HEPES pH 7.3, 150 mM NaCl, 250 µM TCEP.
The target in test [9] is IRE1α LD 312TLPL315-GSGS mutant (human) (UniProt O75460). Nature of the test: AUC; sedimentation velocity (AUC-SV), 25 µM protein.

Chain of UniProt O75460 (O75460 24-443): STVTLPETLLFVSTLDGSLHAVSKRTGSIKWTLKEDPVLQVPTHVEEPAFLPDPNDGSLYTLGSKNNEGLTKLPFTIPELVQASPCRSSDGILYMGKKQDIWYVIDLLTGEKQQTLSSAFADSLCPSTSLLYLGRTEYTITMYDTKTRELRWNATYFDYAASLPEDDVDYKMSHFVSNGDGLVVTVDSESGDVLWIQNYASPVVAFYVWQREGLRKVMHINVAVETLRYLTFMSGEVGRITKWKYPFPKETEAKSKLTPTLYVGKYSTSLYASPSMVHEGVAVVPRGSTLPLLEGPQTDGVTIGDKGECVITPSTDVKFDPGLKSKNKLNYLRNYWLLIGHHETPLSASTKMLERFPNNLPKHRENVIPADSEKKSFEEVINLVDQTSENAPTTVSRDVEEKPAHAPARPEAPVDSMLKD

As to “MPZ1N-2X, model unfolded polypeptide (two MPZ1N 12mers in tandem), N-terminal fluorescein labeled”, the Kd (usually the constant that tells how readily two partners part at equilibrium) in test [1] was 2000 nM. For “mCherry-IRE1α LD 352LNYL355-GSGS-10His (from UniProt O75460 24-443) (domain or fragment)”, the stoichiometry N in [2] and in test [3] was 2 each time. As for “IRE1α LD 352LNYL355-GSGS mutant (from UniProt O75460 24-443) (domain or fragment)”, in test [4], the stoichiometry N (commonly a count of units in the complex or per binding partner) was 2. As to “mCherry-IRE1α LD 312TLPL315-GSGS-10His (from UniProt O75460 24-443) (domain or fragment)”, the stoichiometry N in [5] and in [6] was 2 throughout. For “mCherry-IRE1α LD-10His (from UniProt O75460 24-443) (domain or fragment)”, the stoichiometry N in test [7] and in test [8] was 2 throughout.

In test [9], “IRE1α LD 312TLPL315-GSGS mutant (from UniProt O75460 24-443) (domain or fragment)” registered a stoichiometry N of 2.
